Measurements: patent publication US20090042209A1 (NOX TECHNOLOGIES, published 2009)

Molecular target: T1, albumin (serum) (human, UniProt P02768 25-609)
T1 construct: Present in the serum sample on the 2-D blot; also called unreactive albumin
Test: 2-D gel electrophoresis immunoblot of pooled cancer sera, scFv with anti-S alkaline phosphatase detection
Description: FIG. 1 provides the results of analytical 2-D gel electrophoresis of ECTO-NOX enriched serum proteins from a preparation of sera pooled from cancer patients (breast, ovarian, lung and colon) concentrated by nickel agarose precipitation, followed by immunoblots analysis. Separation in the first dimension was by isoelectric focusing and in the second dimension by SDS-PAGE (using ampholytes over the pH range of 3 to 10 and 10% polyacrylamide gel). For interpretative purposes, the gel is divided into quadrants I-IV with unreactive albumin (albumin) at the center. Detection was with recombinant anti-tNOX single chain variable region (scFv) antibody (MAB 12.1 scFv) carrying an S-tag followed by alkaline phosphatase-liked anti S (Novagen cat. # 69598-3 or equivalent product) with Western Blue NBT substrate (Promega, Madison, Wis; Cat. No. S3841 or equivalent product). Reactive proteins appear reddish blue.

T1 sequence (P02768 25-609 limits assumed): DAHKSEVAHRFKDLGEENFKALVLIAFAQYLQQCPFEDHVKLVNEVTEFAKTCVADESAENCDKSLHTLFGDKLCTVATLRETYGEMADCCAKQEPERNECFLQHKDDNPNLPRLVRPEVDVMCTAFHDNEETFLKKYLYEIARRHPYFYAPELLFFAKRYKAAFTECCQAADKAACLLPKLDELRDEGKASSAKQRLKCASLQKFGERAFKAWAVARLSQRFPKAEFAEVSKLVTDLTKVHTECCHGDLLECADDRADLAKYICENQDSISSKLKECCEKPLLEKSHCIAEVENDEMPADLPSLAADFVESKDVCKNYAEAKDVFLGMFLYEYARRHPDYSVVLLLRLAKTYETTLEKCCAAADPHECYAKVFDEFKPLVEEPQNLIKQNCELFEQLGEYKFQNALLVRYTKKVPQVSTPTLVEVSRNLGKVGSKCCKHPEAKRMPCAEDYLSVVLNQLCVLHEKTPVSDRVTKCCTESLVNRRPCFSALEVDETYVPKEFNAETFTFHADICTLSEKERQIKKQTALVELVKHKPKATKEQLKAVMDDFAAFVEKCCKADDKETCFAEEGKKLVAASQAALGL

B1: recombinant anti-tNOX single chain variable region (scFv) antibody (MAB 12.1 scFv) carrying an S-tag (scFv)
scFv: EVKLQESGTEVVKPGASVKLSCKASGYIFTSYDIDWVRQTPEQGLEWIGWIFPGEGSTEYNEKFKGRATLSVDKSSSTAYMELTRLTSEDSAVYFCARGDYYRRYFDLWGQGTTVTVSSGGGGSGGGGSGGGGSENVLTQSPAIMSASPGERVTMTCSASSSIRYIYWYQQKPGSSPRLLIYDTSNVAPGVPFRFSGSGSGTSYSLTINRMEAEDAATYYCQEWSGYPYTFGGGTKLELKAKETAAAKFERQHMDS
notes: Expressed in E. coli from pET11-ScFv(S) and renatured from inclusion bodies; also called ScFv(S); NTI ScFv MAB 12.1
  binding result: no binding
